The target of experiment [1] is Fc gamma receptor CD16a F variant (human) (UniProt P08637). Kind of experiment: ELISA, plate coated with recombinant huCD16a (F variant), detection with peroxidase anti-human IgG F(ab')2, OD 450 nm - 630 nm.
Experiment [2] deals with human Dectin-1 (isoform not given) (human) (UniProt Q9BXN2). Put plainly: flow cytometry on human monocytes.
Experiment [3] addresses cynomolgus monkey Dectin-1 (cynomolgus monkey). Put plainly: flow cytometry, cynomolgus monkey monocytes. On the technique in general: In flow cytometry, cells or beads pass a laser one at a time.
Experiment [4] addresses human Dectin-1 isoform A (human) (UniProt Q9BXN2). Put plainly: flow cytometry on HEK-Blue hDectin-1a cells.
Experiment [5] has as its target human Dectin-1 isoform B (human) (UniProt Q9BXN2). Kind of experiment: flow cytometry on HEK-Blue hDectin-1b cells.
Experiment [6] deals with human Dectin-1 isoform A (human) (UniProt Q9BXN2). Put plainly: flow cytometry on HEK293F hDectin-1a FL cells.
Experiment [7] concerns the target cynomolgus monkey Dectin-1 (cynomolgus monkey). Put plainly: flow cytometry on cynomolgus monkey monocytes.

Sequence of human Dectin-1 isoform A (human) (Q9BXN2 whole entry, canonical isoform): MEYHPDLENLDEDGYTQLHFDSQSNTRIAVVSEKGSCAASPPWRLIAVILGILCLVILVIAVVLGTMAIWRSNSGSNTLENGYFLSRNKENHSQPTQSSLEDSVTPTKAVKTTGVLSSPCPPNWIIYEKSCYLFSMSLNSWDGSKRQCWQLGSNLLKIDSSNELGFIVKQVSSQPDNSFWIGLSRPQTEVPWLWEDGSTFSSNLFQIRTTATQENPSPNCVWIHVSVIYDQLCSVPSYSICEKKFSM
Sequence of cynomolgus monkey Dectin-1 (cynomolgus monkey) (chain, as listed by the source): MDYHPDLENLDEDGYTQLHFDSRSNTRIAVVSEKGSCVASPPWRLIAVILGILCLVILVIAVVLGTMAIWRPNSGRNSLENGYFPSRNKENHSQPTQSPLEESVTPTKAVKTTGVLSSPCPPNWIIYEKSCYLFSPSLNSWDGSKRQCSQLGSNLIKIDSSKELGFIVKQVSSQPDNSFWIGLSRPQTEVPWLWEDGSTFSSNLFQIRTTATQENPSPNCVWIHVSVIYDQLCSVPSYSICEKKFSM
Sequence of human Dectin-1 (isoform not given) (human) (Q9BXN2 whole entry, canonical isoform): as the sequence (Q9BXN2 whole entry, canonical isoform) above
Sequence of human Dectin-1 isoform B (human) (Q9BXN2 other isoform, or with tags, fused parts or gaps): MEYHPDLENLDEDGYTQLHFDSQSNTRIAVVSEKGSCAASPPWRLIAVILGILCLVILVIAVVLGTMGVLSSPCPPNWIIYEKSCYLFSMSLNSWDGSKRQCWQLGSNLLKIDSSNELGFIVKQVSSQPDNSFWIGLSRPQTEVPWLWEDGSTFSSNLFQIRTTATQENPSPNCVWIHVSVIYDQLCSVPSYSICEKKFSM
Sequence of Fc gamma receptor CD16a F variant (human) (P08637 17-208 limits assumed, change not shown): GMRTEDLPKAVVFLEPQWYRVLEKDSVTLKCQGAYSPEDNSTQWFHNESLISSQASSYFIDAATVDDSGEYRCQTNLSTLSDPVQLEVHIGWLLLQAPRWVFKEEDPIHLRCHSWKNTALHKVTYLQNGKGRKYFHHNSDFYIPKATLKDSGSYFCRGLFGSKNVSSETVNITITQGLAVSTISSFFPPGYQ

For Control (antibody), the EC50 (read off the curve) in experiment [1] turned out to be 0.07 µg/mL.
Consider “commercial anti-Dectin-1 antibody 259931”, for which the EC50 in experiment [2] came out at 0.3 nM; in experiment [3] it was 16 nM; in experiment [4] it was 0.8 nM; in experiment [5] it was 0.9 nM; in experiment [6], 1.2 nM; in experiment [7], 16.5 nM.
Turning to commercial anti-Dectin-1 antibody GE2, the EC50 in experiment [2] turned out to be 1.4 nM; in experiment [4], 1.9 nM; in experiment [5], 12 nM; in experiment [6] it was 2.4 nM.

For orientation: EC50 (read off the curve) means the concentration giving half of the maximal effect. The EC50 is the concentration giving half of the maximal effect.

For the origin of these results see US20250129168A1.
